In publication PMC4120840:

Substrate: Nc1ncnc2c1ncn2[C@@H]1O[C@H](COP(=O)(O)OP(=O)(O)OP(=O)(O)O)[C@@H](O)[C@H]1O
Test: purified protein
Type: biochemical, Homo sapiens
Conditions: MgCl2 UBA3 nucleotide binding pocket

B1: UBA3 (NEDD8 activating enzyme, NAE) (Homo sapiens) (protein)
chain: ADGEEPEKKRRRIEELLAEKMAVDGGCGDTGDWEGRWNHVKKFLERSGPFTHPDFEPSTESLQFLLDTCKVLVIGAGGLGCELLKNLALSGFRQIHVIDMDTIDVSNLNRQFLFRPKDIGRPKAEVAAEFLNDRVPNCNVVPHFNKIQDFNDTFYRQFHIIVCGLDSIIARRWINGMLISLLNYEDGVLDPSSIVPLIDGGTEGFKGNARVILPGMTACIECTLELYPPQVNFPMCTIASMPRLPEHCIEYVRMLQWPKEQPFGEGVPLDGDDPEHIQWIFQKSLERASQYNIRGVTYRLTQGVVKRIIPAVASTNAVIAAVCATEVFKIATSAYIPLNNYLVFNDVDGLYTYTFEAERKENCPACSQLPQNIQFSPSAKLQEVLDYLTNSASLQMKSPAITATLEGKNRTLYLQSVTSIEERTRPNLSKTLKELGLVDGQELAVADVTTPQTVLFKLHFTS
B1 was tested, and the Km was 243 µM.

B2: UBA3 A171T (NEDD8 activating enzyme, NAE (UBA3 A171T)) (Homo sapiens; A171T) (protein)
chain: ADGEEPEKKRRRIEELLAEKMAVDGGCGDTGDWEGRWNHVKKFLERSGPFTHPDFEPSTESLQFLLDTCKVLVIGAGGLGCELLKNLALSGFRQIHVIDMDTIDVSNLNRQFLFRPKDIGRPKAEVAAEFLNDRVPNCNVVPHFNKIQDFNDTFYRQFHIIVCGLDSIITRRWINGMLISLLNYEDGVLDPSSIVPLIDGGTEGFKGNARVILPGMTACIECTLELYPPQVNFPMCTIASMPRLPEHCIEYVRMLQWPKEQPFGEGVPLDGDDPEHIQWIFQKSLERASQYNIRGVTYRLTQGVVKRIIPAVASTNAVIAAVCATEVFKIATSAYIPLNNYLVFNDVDGLYTYTFEAERKENCPACSQLPQNIQFSPSAKLQEVLDYLTNSASLQMKSPAITATLEGKNRTLYLQSVTSIEERTRPNLSKTLKELGLVDGQELAVADVTTPQTVLFKLHFTS
Work on B2 yielded a Km of 1006 µM.
